The target in this experiment is LuS-N71-SpyTag (Aquifex aeolicus lumazine synthase nanoparticle with a glycan at N71 and SpyTag at the N-terminus) (Aquifex aeolicus).

“SARS-CoV-2 spike-SpyCatcher (prefusion-stabilized SARS-CoV-2 spike trimer fused with a C-terminal SpyCatcher)” showed a percent of nanoparticle subunits conjugated of 91%.
